{"source": "patent US6949522B2", "about": "“β-2′- or 3′-halonucleosides” (Pharmasset, Inc., priority 2001, dated 2005)", "substrate": "Nc1ncnc2c1ncn2[C@@H]1O[C@H](CO)[C@@H](O)[C@H]1O", "test": "purified protein, by the assay type", "settings": "other: 25° C., phosphate buffer pH 7.4, substrate of ADA", "procedure": "Assays were performed at 25° C. in phosphate buffer solution (pH 7.4) with substrate concentrations in the range of 15-100 μM and with 0.15 unit of adenosine deaminase (EC.3.5.4.4. from calf intestinal mucosa). The assays were monitored with a UV spectrometer at 265 nm. […] The concentration (ct) of each substrate at a certain time (t) was calculated from the absorbance (At) at that time (t), where it was assumed that the total change of absorbance (A0−A∞) was directly related to the disappearance of the substrate.^35 Initial hydrolysis rates for each substrate concentration were measured manually through graphical curve fitting of the concentration versus time data for reaction of each substrate. From Lineweaver-Burke plot of these initial rates, Vmax (maximum velocity) and KM (Michaelis constant) were obtained for each substrate and kcat was also calculated with 0.15 unit of the enzyme (M.W. 33,000) in 2 mL of buffer solution."}
{"protein": "adenosine deaminase (EC.3.5.4.4. from calf intestinal mucosa) (Bos taurus) (protein) MAQTPAFNKPKVELHVHLDGAIKPETILYYGRKRGIALPADTPEELQNIIGMDKPLSLPEFLAKFDYYMPAIAGCREAVKRIAYEFVEMKAKDGVVYVEVRYSPHLLANSKVEPIPWNQAEGDLTPDEVVSLVNQGLQEGERDFGVKVRSILCCMRHQPSWSSEVVELCKKYREQTVVAIDLAGDETIEGSSLFPGHVKAYAEAVKSGVHRTVHAGEVGSANVVKEAVDTLKTERLGHGYHTLEDATLYNRLRQENMHFEVCPWSSYLTGAWKPDTEHPVVRFKNDQVNYSLNTDDPLIFKSTLDTDYQMTKNEMGFTEEEFKRLNINAAKSSFLPEDEKKELLDLLYKAYGMPSPASAEQCL", "values": [{"measurement": "Km", "result": 24.5, "unit": "µM"}, {"measurement": "kcat", "result": 76.4, "unit": "s⁻¹"}, {"measurement": "kcat/Km", "result": "3.1e+06", "unit": "M⁻¹ s⁻¹"}]}
